One molecule from PMC8811898, “Structural Insights into Methylated DNA Recognition by the Methyl-CpG Binding Domain of MBD6 from Arabidopsis thaliana” can be followed below.

In one data set the target is T1, AtMBD6 MBD domain WT (Arabidopsis thaliana, UniProt Q9LTJ1 78-140).
T1 sequence: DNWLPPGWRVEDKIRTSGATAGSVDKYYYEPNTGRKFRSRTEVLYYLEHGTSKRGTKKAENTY
Briefly: NMR titration (1H-15N HSQC); 20 mM Na phosphate pH 6.5, 150 mM NaCl, 20 C; two-state fit; NMR: 20 mM Na phosphate pH 6.5, 150 mM NaCl, 5% D2O, 20 C; EMSA: 25 mM Tris, 25 mM boric acid, 150 mM NaCl, 5% glycerol, 1 mM DTT, 4 C, 30 min. The conditions noted are these: protein: recombinant; tags: GST removed by HRV3C; N-terminal GPLGS remains; blunt; self-complementary.

A further data set has as its target T2, AtMBD6 MBD domain S100R (Arabidopsis thaliana, UniProt Q9LTJ1 78-140, S100R).
T2 sequence: T1 sequence with S23R
Briefly: NMR titration (1H-15N HSQC); slow exchange, increased affinity vs WT; no reliable Kd from NMR, ITC or FP; NMR: 20 mM Na phosphate pH 6.5, 150 mM NaCl, 5% D2O, 20 C; EMSA: 25 mM Tris, 25 mM boric acid, 150 mM NaCl, 5% glycerol, 1 mM DTT, 4 C, 30 min. The conditions noted are these: protein: recombinant; tags: GST removed by HRV3C; N-terminal GPLGS remains; blunt; self-complementary.

Changes are numbered by the printed parent chain.

B1: MG (dsDNA)
DNA 1: GGTATGCGCATACC
DNA 2: GGTATGCGCATACC
modifications: 5-methylcytosine at position 7 of both strands (symmetric methyl-CpG)
Take B1: in the data set with AtMBD6 MBD domain WT, the Kd worked out at 40.2 ± 0.5 µM. Also, the binding result with AtMBD6 MBD domain S100R is reported as “binds”.
